Where a chain is given by its changes, count along the chain named. Names and notes keep the numbering of the source. Read-outs that look alike come from different tables or passages of the source.
B1: H348 Acrylodan: tsGBP2_C348 (SEQ ID NO: 35) Acrylodan conjugate (conjugate)
chain: MKLEIFSWWAGDEGPALEALIRLYKQKYPGVEVINATVTGGAGVNAKAVLKTRMLGGDPPDTFQVHAGQELIGTWVVADRMEDLTSLFRQEGWLQAFPKGLIDLLSYKGGIWSVPVNIHRSNVMWYIPAKLKEWGVTPPKTWAEFLATAQTLKRKGLEAPLALGENWTQQHLWESVALATLGADGWNNLWSGKLKFTDPKAVAVWETFGKVLDAANKDAAGLSWQQAVDRVVQGKAAFNIMGDWAAGYMSTTLKLKPGTDFAWTPSPGTSGIFMMLSDSFGLPKGAKNRQNAINWLKLVGSKEGQDTFNPLKGSIAARLDSDPAKYNAYGQSAMKDWKSNRIVGSLVCGAVAPESFMSQFGTVMEIFLQSRNPQAAANAAQAIANQVGLGRGGSHHHHHH
modifications: Acrylodan conjugate; tsGBP2_C348 (348C substitution mutant with signal peptide replaced with M and a GGSHHHHHH at C-terminus)
B2: W9M B: tsGBP2.13C.W9M (SEQ ID NO: 41) Badan conjugate (conjugate)
chain: B1 chain with W9M, E13C, C348H
modifications: Badan conjugate; tsGBP2.13C.W9M (13C 9M double substitution mutant with signal peptide replaced with M and a GGSHHHHHH at C-terminus)
B3: W8F B: tsGBP2.13C.W8F (SEQ ID NO: 37) Badan conjugate (conjugate)
chain: B1 chain with W8F, E13C, C348H
modifications: Badan conjugate; tsGBP2.13C.W8F (13C, 8F double substitution mutant)
B4: Q64M B: tsGBP2.13C.Q64M (SEQ ID NO: 45) Badan conjugate (conjugate)
chain: B1 chain with E13C, Q64M, C348H
modifications: Badan conjugate; tsGBP2.13C.Q64M (13C, 64M double substitution mutant with signal peptide replaced with M and a GGSHHHHHH at C-terminus)
B5: W9F B: tsGBP2.13C.W9F (SEQ ID NO: 40) Badan conjugate (conjugate)
chain: B1 chain with W9F, E13C, C348H
modifications: Badan conjugate; tsGBP2.13C.W9F (13C 9F double substitution mutant with signal peptide replaced with M and a GGSHHHHHH at C-terminus)
B6: W9C Badan: tsGBP2_C9 (SEQ ID NO: 18) Badan conjugate (conjugate)
chain: B1 chain with W9C, C348H
modifications: Badan conjugate; tsGBP2_C9 (9C substitution mutant with signal peptide replaced with M and a GGSHHHHHH at C-terminus)
B7: M357 Badan: tsGBP2_C357 (SEQ ID NO: 36) Badan conjugate (conjugate)
chain: B1 chain with C348H, M357C
modifications: Badan conjugate; tsGBP2_C357 (357C substitution mutant with signal peptide replaced with M and a GGSHHHHHH at C-terminus)
B8: Q64M A: tsGBP2.13C.Q64M (SEQ ID NO: 45) Acrylodan conjugate (conjugate)
chain: B1 chain with E13C, Q64M, C348H
modifications: Acrylodan conjugate; tsGBP2.13C.Q64M (13C, 64M double substitution mutant with signal peptide replaced with M and a GGSHHHHHH at C-terminus)
B9: W9C Acrylodan: tsGBP2_C9 (SEQ ID NO: 18) Acrylodan conjugate (conjugate)
chain: B1 chain with W9C, C348H
modifications: Acrylodan conjugate; tsGBP2_C9 (9C substitution mutant with signal peptide replaced with M and a GGSHHHHHH at C-terminus)
B10: W8M B: tsGBP2.13C.W8M (SEQ ID NO: 38) Badan conjugate (conjugate)
chain: B1 chain with W8M, E13C, C348H
modifications: Badan conjugate; tsGBP2.13C.W8M (13C, 8M double substitution mutant with signal peptide replaced with M and a GGSHHHHHH at C-terminus)
B11: W8Y A: tsGBP2.13C.W8Y (SEQ ID NO: 39) Acrylodan conjugate (conjugate)
chain: B1 chain with W8Y, E13C, C348H
modifications: Acrylodan conjugate; tsGBP2.13C.W8Y (13C, 8Y double substitution mutant with signal peptide replaced with M and a GGSHHHHHH at C-terminus)
B12: W8Y B: tsGBP2.13C.W8Y (SEQ ID NO: 39) Badan conjugate (conjugate)
chain: B1 chain with W8Y, E13C, C348H
modifications: Badan conjugate; tsGBP2.13C.W8Y (13C, 8Y double substitution mutant with signal peptide replaced with M and a GGSHHHHHH at C-terminus)
B13: W8C Badan: tsGBP2_C8 (SEQ ID NO: 17) Badan conjugate (conjugate)
chain: B1 chain with W8C, C348H
modifications: Badan conjugate; tsGBP2_C8 (8C substitution mutant with signal peptide replaced with M and a GGSHHHHHH at C-terminus)
B14: W9F A: tsGBP2.13C.W9F (SEQ ID NO: 40) Acrylodan conjugate (conjugate)
chain: B1 chain with W9F, E13C, C348H
modifications: Acrylodan conjugate; tsGBP2.13C.W9F (13C 9F double substitution mutant with signal peptide replaced with M and a GGSHHHHHH at C-terminus)
B15: M357 Acrylodan: tsGBP2_C357 (SEQ ID NO: 36) Acrylodan conjugate (conjugate)
chain: B1 chain with C348H, M357C
modifications: Acrylodan conjugate; tsGBP2_C357 (357C substitution mutant with signal peptide replaced with M and a GGSHHHHHH at C-terminus)
B16: W9M A: tsGBP2.13C.W9M (SEQ ID NO: 41) Acrylodan conjugate (conjugate)
chain: B1 chain with W9M, E13C, C348H
modifications: Acrylodan conjugate; tsGBP2.13C.W9M (13C 9M double substitution mutant with signal peptide replaced with M and a GGSHHHHHH at C-terminus)
B17: W8F A: tsGBP2.13C.W8F (SEQ ID NO: 37) Acrylodan conjugate (conjugate)
chain: B1 chain with W8F, E13C, C348H
modifications: Acrylodan conjugate; tsGBP2.13C.W8F (13C, 8F double substitution mutant)
B18: W8C Acrylodan: tsGBP2_C8 (SEQ ID NO: 17) Acrylodan conjugate (conjugate)
chain: B1 chain with W8C, C348H
modifications: Acrylodan conjugate; tsGBP2_C8 (8C substitution mutant with signal peptide replaced with M and a GGSHHHHHH at C-terminus)
B19: W9Y B: tsGBP2.13C.W9Y (SEQ ID NO: 42) Badan conjugate (conjugate)
chain: B1 chain with W9Y, E13C, C348H
modifications: Badan conjugate; tsGBP2.13C.W9Y (13C, 9Y double substitution mutant with signal peptide replaced with M and a GGSHHHHHH at C-terminus)
B20: H66Q A: tsGBP2.13C.H66Q (SEQ ID NO: 46) Acrylodan conjugate (conjugate)
chain: B1 chain with E13C, H66Q, C348H
modifications: Acrylodan conjugate; tsGBP2.13C.H66Q (13C, 66Q double substitution mutant with signal peptide replaced with M and a GGSHHHHHH at C-terminus)

Test: Ratiometric fluorescence glucose titration of fluorescent conjugates
Assay type: binding
Parameters: key to Shape (fluorescence response to glucose) / Change (fluorescence response to glucose): m, monochromatic; d, dichromatic (i.e. spectral shape change); 0, no change
Method in brief: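 Single-cysteine glucose-binding protein mutants labelled site-specifically with thiol-reactive environmentally sensitive fluorophores; emission spectra recorded during glucose titration to detect ligand-mediated intensity and spectral-shape changes for ratiometric read-out. Temperature- and ligand-dependent fluorescence landscapes acquired in 1K steps; binding fitted to single-site fractional saturation.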

[1] = tsGBP2 cysteine scan, Acrylodan conjugate
[2] = tsGBP 13C affinity mutants, Acrylodan or Badan conjugates
[3] = tsGBP2 cysteine scan, Badan conjugate

Molecule	Change (fluorescence response to glucose) [2]	also measured
B1		Shape (fluorescence response to glucose) [1]: m; Kd (tsGBP2 cysteine scan, Acrylodan conjugate, ratiometric fit at λ1 and λ2, read-out: Kd ^appKd): ~1.3 mM
B2	m^c	
B3	0	
B4	m	
B5	0	
B6		Shape (fluorescence response to glucose) [3]: m
B7		Shape (fluorescence response to glucose) [3]: m
B8	m/d	
B9		Shape (fluorescence response to glucose) [1]: m
B10	m	
B11	m/d^c	
B12	0	
B13		Shape (fluorescence response to glucose) [3]: m
B14	m	
B15		Shape (fluorescence response to glucose) [1]: 0
B16	m	
B17	0	
B18		Shape (fluorescence response to glucose) [1]: m
B19	m	
B20		Kd (read-out: Glucose affinity ^appKd, tsGBP 13C affinity mutants, Acrylodan or Badan conjugates): ~20 mM; Kd (read-out: Glucose affinity ^trueKd, tsGBP 13C affinity mutants, Acrylodan or Badan conjugates): ~7 mM

— US11402384B2 (Duke University, priority 2015, dated 2022)
